# Reference: PMC4809669 (Biochemistry, 2016)
# Target: the molecule itself
# Experiment: SEC
row,Protein,stoichiometry N
1,"hASRGL1-C202A (enzyme, human, UniProt Q7L266 1-308, looked up) MNPIVVVHGGGAGPISKDRKERVHQGMVRAATVGYGILREGGSAVDAVEGAVVALEDDPEFNAGCGSVLNTNGEVEMDASIMDGKDLSAGAVSAVQCIANPIKLARLVMEKTPHCFLTDQGAAQFAAAMGVPEIPGEKLVTERNKKRLEKEKHEKGAQKTDCQKNLGTVGAVALDCKGNVAYATSTGGIVNKMVGRVGDSPALGAGGYADNDIGAVSTTGHGESILKVNLARLTLFHIEQGKTVEEAADLSLGYMKSRVKGLGGLIVVSKTGDWVAKWTSTSMPWAAAKDGKLHFGIDPDDTTITDLP",2
2,"hASRGL1-C202S (enzyme, human, UniProt Q7L266 1-308, looked up) MNPIVVVHGGGAGPISKDRKERVHQGMVRAATVGYGILREGGSAVDAVEGAVVALEDDPEFNAGCGSVLNTNGEVEMDASIMDGKDLSAGAVSAVQCIANPIKLARLVMEKTPHCFLTDQGAAQFAAAMGVPEIPGEKLVTERNKKRLEKEKHEKGAQKTDCQKNLGTVGAVALDCKGNVAYATSTGGIVNKMVGRVGDSPSLGAGGYADNDIGAVSTTGHGESILKVNLARLTLFHIEQGKTVEEAADLSLGYMKSRVKGLGGLIVVSKTGDWVAKWTSTSMPWAAAKDGKLHFGIDPDDTTITDLP",2
